In patent US20170252403A1, “METHODS AND COMPOSITIONS FOR TREATING RETINAL DISORDERS” (AMARANTUS BIOSCIENCE HOLDINGS, INC., priority 2014, published 2017):
Values joined by “and” are separate entries in the source; they are usually repeats but may differ in a detail not shown here. Equal entries are not always repeated. “Also recorded” adds a separate entry of the source. Where two headings read alike, the source gives them in different places.

Tests used:
[1] = tested on: eyes of pigmented rabbits; assay: 15-day ocular tolerance study after single intravitreal administration; type: in vivo, pigmented rabbit; conditions: MANF 3 mg/mL, 100 μL single intravitreal
Description: Ten female pigmented rabbits were divided into two groups of five animals each, corresponding to both treatments.
The eyes of the animals were examined by Split-lamp and assessed by using the McDonald-Shadduck's scale at Baseline and at Days 1, 3, 8 and 15. At the end of the in-life period on Day 15 both eyeballs of all animals were collected and processed for histology and microscopic examination.

[2] = tested on: ischemia of the brain (tMCAO); conditions: cited from earlier work
[3] = tested on: primary mixed cortical/hippocampal neuronal cultures; conditions: cultures exposed to the ER stressor tunicamycin; cited from earlier work
[4] = General behavior and body weight in the rat retinal ischemia study; conditions: for Body weight, sacrifice day, mean: Day 7, group mean
Protocol: The body weight of all animals was recorded before the start of the study, on Day 0 and at the end of the study (Day 7).
Each day, the general behavior and the aspect of all animals were observed.

[5] = tested on: retinal function after transient retinal ischemia (optic nerve clamping); assay: Electroretinography (ERG a-wave/b-wave amplitude) after retinal ischemia by optic nerve clamping
Protocol: (§1) In this Example, retinal ischemia was induced by transient vascular clamping of the optic nerve in the right eyes of Sprague Dawley albino rats for 45 min. Reperfusion was initiated by the release of the clamp. Retinal function was evaluated by ERG at baseline and 7 days after ischemia. RGC survival was assessed by immunohistochemistry 7 days after ischemia.
(§2) Retinal ischemia was induced by vascular clamping of the optic nerve in the right eyes for 45 min. Reperfusion was initiated by the release of the clamp. Retinal function was evaluated by electroretinography (ERG) at baseline and 7 days after ischemia. Retinal Ganglion Cell (RGC) survival was assessed by immunohistology 7 days after ischemia.
The functional status of the retina was evaluated by electroretinography one week after the ischemic insult and compared to baseline values determined just prior to optic nerve ischemia. The b-wave is induced by potassium efflux shunted from activated bipolar cells by Müller cells and is an electrophysiological indicator of inner retinal signal transmission. The ERG parameters applied were the following: Color: white maximum; Maximum intensity: 2.6 cd·s/m2 (0 dB); Duration 0.24 ms; Numbers of flashes: 1; Filter: 50 Hz; Impedance threshold: 90 kΩ.
Test and control items were injected intravitreally (4 μL) in right eye from anesthetized rat using a mix of xylazine/ketamine and a 30-G needle mounted on a syringe, immediately after reperfusion.
Reference item was intraperitoneally dosed using a 0.5 mL/kg volume of administration, 30 min before induction.
Right eyes underwent a temporal orbitectomy combined with periorbital stripping. The globe remained in the orbit and was completely isolated on a pedicle consisting of the optic nerve, ophthamociliary arteries and the venous outflow. A clamp placed around the pedicle initiated the global ocular ischemia when tightened.
Ischemia was maintained for 45 minutes. The reperfusion period was initiated by the release of the clamp.
ERG was recorded before ischemia (baseline) and 7 days after reperfusion in both eyes. The a-wave and b-wave amplitudes (μV) were measured for each ERG; the a-wave and b-wave amplitudes as a percentage of the baseline values obtained before ischemia. […] Mydriaticum (0.5% tropicamide) were instilled for pupillary dilatation.
ERG parameters: • Color: white maximum. • Maximum intensity: 2.6 cd·s/m2 (0 dB); Duration 0.24 ms; number of flash: 1. • Filter: 50 Hz. • Impedance Threshold: 90 kΩ.

[6] = tested on: retinal ganglion cells (RGC); assay: Retinal ganglion cell survival (Brn3a immunohistochemistry on flat-mounted retinas) after retinal ischemia; conditions: for Alive cells (BrN3A positive) in right eye, group Mean / Alive cells (BrN3A positive) in right eye, individual mean cells/mm^2: right injured eye; for Alive cells (BrN3A positive) in right eye, group Mean / Alive cells (BrN3A positive) in right eye, individual mean cells/mm^2 / RGC density, alive cells (BrN3A positive) in right eye: 7 days after ischemia; for Alive cells (BrN3A positive) in right eye, individual mean cells/mm^2: individual rats; for RGC density, alive cells (BrN3A positive) in right eye: 4 μL intravitreal once after reperfusion; for Alive cells (BrN3A positive) in right eye, group Mean / RGC density, alive cells (BrN3A positive) in right eye: group mean;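 on all read-outs here: sprague Dawley rats, right optic nerve vessels clamped 45 min then reperfused, Brn3a-stained RGC counted on flat-mounted retinas in cells/mm^2, 8 fields per retina, uninjured left eyes as naive controls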
Protocol: as §1, §2
To assess the effect of the treatment on RGC viability, the RGC density was evaluated 7 days after ischemia by immunohistochemistry with a stain for the RGC specific marker Brn3a.
After euthanasia, the right eyeballs were fixed in Formalin 4% (24 h at 4° C.), dissected and retinas were flat mounted. Two left eyes retinas per group were sampled and processed the same as the right eye retinas. They served as naïve controls. The flat mounted preparations were stained with an Alexa 594 conjugated anti-BRN3A (Brain-specific hoeobox/POU domain protein 3A, Chemicon, cat #mAb1585) to label RGC. Fluorescence images were recorded with Apotome microscope at magnification ×10 (Zeiss). RGC were counted with Image J software in 8 locations for each retina area (2 pictures per quarter). The cell count was reported in cell/mm^2.

[7] = MANF 1.5 mg/mL intravitreal, treated right (ischemic) eye, individual rats

B1: mesencephalic astrocyte-derived neurotrophic factor (protein)
chain: GRFYQDLKDRDVTFSPATIENELIKFCREARGKENRLCYYIGATDDAATKIINEVSKPLAHHIPVEKICEKLKKKDSQICELKYDKQIDLSTVDTKKLRVKELKKILDDWGETCKGCAEKSDYIRKINELMPKYAPKAASARTDL
Effects on body weight, clinical observations or ophthalmic examinations ([1]; right eye, 15 days, McDonald-Shadduck scale): no treatment- or administration-related effects
Ocular tolerance ([1]; 15 days): macroscopically and microscopically well tolerated
Histopathology evaluation of the eyes ([1]; Day 15): No pathological findings related to treatment
Reduction of infarct size ([2]; MANF expressed in the cortex using an AAV-based vector): 40%
Reduction of infarct size ([2]; day 2, compared to vehicle treated animals): 50%
Protection against tunicamycin (TUNEL-positive cells as marker of apoptosis) [3]: fully protected
Body weight, sacrifice day, mean ([4]; MANF 0.15 mg/mL intravitreal): 343 g
Body weight, sacrifice day, mean ([4]; MANF 0.5 mg/mL intravitreal): 345 g
Body weight, sacrifice day, mean ([4]; MANF 1.5 mg/mL intravitreal): 347 g
General behavior and appearance ([4]; daily observation during the study period, regardless the dose): not altered
A-wave amplitude (μV), treated right eye ([5]; MANF 0.5 mg/mL intravitreal, Day 7, group mean): −268.9 μV
A-wave Amplitude (μV) Day 7 [5, 7]: −254 μV and −299 μV and −255 μV
B-wave Amplitude (μV) Day 7 [5, 7]: 426 μV and 456 μV
Alive cells (BrN3A positive) in right eye, group Mean ([6]; MANF 0.15 mg/mL intravitreal): 402.8 cells/mm^2
Alive cells (BrN3A positive) in right eye, individual mean cells/mm^2 ([6]; MANF 0.15 mg/mL intravitreal): 469 cells/mm^2 and 722 cells/mm^2 and 636 cells/mm^2 and 471 cells/mm^2 and 456 cells/mm^2 and 374 cells/mm^2 and 161 cells/mm^2 and 432 cells/mm^2 and 408 cells/mm^2 and 448 cells/mm^2 and 47 cells/mm^2 and 210 cells/mm^2
RGC density, alive cells (BrN3A positive) in right eye ([6]; MANF 0.15 mg/mL): 403±189 cells/mm^2 and 402.8 cells/mm^2
Alive cells (BrN3A positive) in right eye, group Mean ([6]; MANF 0.5 mg/mL intravitreal): 464.9 cells/mm^2
Alive cells (BrN3A positive) in right eye, individual mean cells/mm^2 ([6]; MANF 0.5 mg/mL intravitreal): 512 cells/mm^2 and 443 cells/mm^2 and 613 cells/mm^2 and 364 cells/mm^2 and 379 cells/mm^2 and 549 cells/mm^2 and 336 cells/mm^2 and 97 cells/mm^2 and 249 cells/mm^2 and 1209 cells/mm^2 and 105 cells/mm^2 and 724 cells/mm^2
RGC density, alive cells (BrN3A positive) in right eye ([6]; MANF 0.5 mg/mL): 465±301 cells/mm^2 and 464.9 cells/mm^2
Alive cells (BrN3A positive) in right eye, group Mean ([6]; MANF 1.5 mg/mL intravitreal): 487.7 cells/mm^2
Alive cells (BrN3A positive) in right eye, individual mean cells/mm^2 ([6]; MANF 1.5 mg/mL intravitreal): 546 cells/mm^2 and 378 cells/mm^2 and 549 cells/mm^2 and 723 cells/mm^2 and 536 cells/mm^2 and 974 cells/mm^2 and 197 cells/mm^2 and 543 cells/mm^2 and 488 cells/mm^2 and 260 cells/mm^2 and 342 cells/mm^2 and 316 cells/mm^2
RGC density, alive cells (BrN3A positive) in right eye ([6]; MANF 1.5 mg/mL): 488±214 cells/mm^2 and 488±14 cells/mm^2 and 487.7 cells/mm^2
Protection of RGC, in words ([6]; single intravitreal MANF at 0.15, 0.5 and 1.5 mg/mL, one-week reperfusion): a trend in protecting RGCs; also recorded: protecting RGC
